Data taken from patent US10781262B2, “Combination therapy of T cell activating bispecific antigen binding molecules and PD-1 axis binding antagonists” (Hoffmann-La Roche Inc., priority 2014, dated 2020).

Assays:
cynomolgus FolR1 = settings: IgG injected for 60 seconds at 500 nM
Description: (§1) Binding of FolR1 binders as IgG or in the T-cell bispecific format to different recombinant folate receptors (human FolR1, 2 and 3, murine FolR1 and cynomolgus FolR1; all as Fc fusions) was assessed by surface plasmon resonance (SPR). All SPR experiments were performed on a Biacore T200 at 25° C. with HBS-EP as running buffer (0.01 M HEPES pH 7.4, 0.15 M NaCl, 3 mM EDTA, 0.005% Surfactant P20, Biacore, Freiburg/Germany).
(§2) First the anti-FolR1 IgGs were analyzed by single injections (Table 1) to characterize their crossreactivity (to human, murine and cyno FolR1) and specificity (to human FolR1, human FolR2, human FolR3). Recombinant biotinylated monomeric Fc fusions of human, cynomolgus and murine Folate Receptor 1 (FolR1-Fc) or human Folate Receptor 2 and 3 (FolR2-Fc, FolR3-Fc) were directly coupled on a SA chip using the standard coupling instruction (Biacore, Freiburg/Germany). The immobilization level was about 300-400 RU. The IgGs were injected for 60 seconds at a concentration of 500 nM.

human FolR1 = human FolR1 (Homo sapiens, UniProt P15328); settings: IgG injected for 60 seconds at 500 nM
Description: as §1, §2

human FolR2 = human FolR2 (Homo sapiens, UniProt P14207); settings: IgG injected for 60 seconds at 500 nM
Description: as §1, §2

human FolR3 = human FolR3 (Homo sapiens, UniProt P41439); settings: IgG injected for 60 seconds at 500 nM
Description: as §1, §2

murine FolR1 = murine FolR1 (Mus musculus, UniProt P35846); settings: IgG injected for 60 seconds at 500 nM
Description: as §1, §2

[1] = target: T1, human Folate Receptor 1 (FolR1-Fc) (Homo sapiens, UniProt P15328); test: SPR avidity to Folate Receptor 1 (bivalent binding); settings: bivalent binding (avidity), ligand huFolR1
T1 construct: the extracellular domain of the antigen linked to the hinge region of Fc-knob; made in house; host or cells: HEK293 EBNA
Text: The immobilization level was about 300-400 RU. […] The dissociation was monitored for 600 seconds.

[2] = system: cynomolgus Folate Receptor 1 (FolR1-Fc); settings: bivalent binding (avidity), ligand cyFolR1
Description: as §1
The avidity of the interaction between the anti-FolR1 IgGs or T cell bispecifics and the recombinant folate receptors was determined as described below (Table 9). Recombinant biotinylated monomeric Fc fusions of human, cynomolgus and murine Folate Receptor 1 (FolR1-Fc) were directly coupled on a SA chip using the standard coupling instruction (Biacore, Freiburg/Germany). The immobilization level was about 300-400 RU. The anti-FolR1 IgGs or T cell bispecifics were passed at a concentration range from 2.1 to 500 nM with a flow of 30 μL/minutes through the flow cells over 180 seconds. The dissociation was monitored for 600 seconds. […] The binding curves resulting from the bivalent binding of the IgGs or T cell bispecifics were approximated to a 1:1 Langmuir binding and fitted with that model (which is not correct, but gives an idea of the avidity). The apparent avidity constants for the interactions were derived from the rate constants of the fitting using the Bia Evaluation software (GE Healthcare).

[3] = system: cyno Folate Receptor 1 Fc fusion; settings: monovalent binding (affinity), analyte cyFolR1
Description: as §1
(§3) For affinity measurement, direct coupling of around 6000-7000 resonance units (RU) of the anti-human Fab specific antibody (Fab capture kit, GE Healthcare) was performed on a CM5 chip at pH 5.0 using the standard amine coupling kit (GE Healthcare). Anti-FolR1 IgGs or T cell bispecifics were captured at 20 nM with a flow rate of 10 μl/min for 20 or 40 sec, the reference flow cell was left without capture. Dilution series (6.17 to 500 nM or 12.35 to 3000 nM) of human or cyno Folate Receptor 1 Fc fusion were passed on all flow cells at 30 μl/min for 120 or 240 sec to record the association phase. The dissociation phase was monitored for 240 s and triggered by switching from the sample solution to HBS-EP. The chip surface was regenerated after every cycle using a double injection of 60 sec 10 mM Glycine-HCl pH 2.1 or pH 1.5. Bulk refractive index differences were corrected for by subtracting the response obtained on the reference flow cell 1. The affinity constants for the interactions were derived from the rate constants by fitting to a 1:1 Langmuir binding using the Bia Evaluation software (GE Healthcare).

[4] = target: human Folate Receptor 1 Fc fusion (Homo sapiens, UniProt P15328); settings: monovalent binding (affinity), analyte huFolR1
Description: as §1, §3

huFolR1-Fc = test: SPR epitope binning; format: binding, human; settings: label = immobilized binder; 500 nM; further: key: + means binding; − means no binding; +/− means weak binding
Description: 500 nM huFolR1-Fc was then captured for 60 s, followed by 500 nM of the different binders for 30 s. The surface was regenerated with two injections of 10 mM glycine pH 2 for 30 s each.

B1: Mov19: reference molecule, the human FolR1 binder Mov19 (IgG) (antibody, V domains shown)
VH: QVQLQQSGAELVKPGASVKISCKASGYSFTGYFMNWVKQSHGKSLEWIGRIHPYDGDTFYNQNFKDKATLTVDKSSNTAHMELLSLTSEDFAVYYCTRYDGSRAMDYWGQGTTVTVSS
VL: DIELTQSPASLAVSLGQRAIISCKASQSVSFAGTSLMHWYHQKPGQQPKLLIYRASNLEAGVPTRFSGSGSKTDFTLNIHPVEEEDAATYYCQQSREYPYTFGGGTKLEIK
Binding to cyFolR1 (cynomolgus FolR1): + | Binding to huFolR1 (human FolR1): + | Binding to huFolR2 (human FolR2): − | Binding to huFolR3 (human FolR3): − | Binding to muFolR1 (murine FolR1): − | ka [1]: 861000 M⁻¹ s⁻¹ | kd [1]: 0.000121 s⁻¹ | ka [2]: 1.29e+06 M⁻¹ s⁻¹ | kd [2]: 0.000139 s⁻¹ | ka [3]: 297000 M⁻¹ s⁻¹ | kd [3]: 0.000193 s⁻¹ | ka [4]: 289000 M⁻¹ s⁻¹ | kd [4]: 0.000159 s⁻¹ | binding of analyte in solution 9D11 TCB to huFolR1 captured on the immobilized binder (huFolR1-Fc): +/− | binding of analyte in solution 16D5 TCB to huFolR1 captured on the immobilized binder (huFolR1-Fc): + | binding of analyte in solution 21A5 TCB to huFolR1 captured on the immobilized binder (huFolR1-Fc): + | binding of analyte in solution 36F2 IgG to huFolR1 captured on the immobilized binder (huFolR1-Fc): − | binding of analyte in solution Farletuzumab to huFolR1 captured on the immobilized binder (huFolR1-Fc): − | binding of analyte in solution Mov19 IgG to huFolR1 captured on the immobilized binder (huFolR1-Fc): − | binding to erythrocytes (erythrocytes): could not observe any specific binding
